In the experiment the test system is UMR 106-01 rat osteosarcoma cells. The experiment can be described thus: Binding of 125I-labeled proteinases to UMR 106-01 cells. The note with it: 125I-labeled ligand 8 nM; means ± SEM for triplicate wells.

B1: Human MMP-2: human 72 kDa gelatinase (MMP-2) (protein, UniProt P08253 110-660, looked up)
72 kDa type IV collagenase: YNFFPRKPKWDKNQITYRIIGYTPDLDPETVDDAFARAFQVWSDVTPLRFSRIHDGEADIMINFGRWEHGDGYPFDGKDGLLAHAFAPGTGVGGDSHFDDDELWTLGEGQVVRVKYGNADGEYCKFPFLFNGKEYNSCTDTGRSDGFLWCSTTYNFEKDGKYGFCPHEALFTMGGNAEGQPCKFPFRFQGTSYDSCTTEGRTDGYRWCGTTEDYDRDKKYGFCPETAMSTVGGNSEGAPCVFPFTFLGNKYESCTSAGRSDGKMWCATTANYDDDRKWGFCPDQGYSLFLVAAHEFGHAMGLEHSQDPGALMAPIYTYTKNFRLSQDDIKGIQELYGASPDIDLGTGPTPTLGPVTPEICKQDIVFDGIAQIRGEIFFFKDRFIWRTVTPRDKPMGPLLVATFWPELPEKIDAVYEAPQEEKAVFFAGNEYWIYSASTLERGYPKPLTSLGLPPDVQRVDAAFNWSKNKKTYIFAGDKFWRYNEVKKKMDPGFPKLIADAWNAIPDNLDAVVDLQGGGHSYFFKGAYYLKLENQSLKSVKFGSIKSDWLGC
Molecule B1 showed a Specific binding of 0.0 ± 0.0 fmol/2.6 × 10^5 cells.

The values above are taken from patent US6403637B1, “Methods of modulating matrix metalloproteinase activity and uses thereof” (priority 1999, dated 2002).
